Data reported in the nanobody polyreactivity screen of Harvey et al. (2022).

Assay: yeast display, Sf9 membrane polyspecificity reagent, FACS + sequencing; frameworks hold sequencing errors
Procedure, shortened: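 In a synthetic yeast display library (Saccharomyces cerevisiae BJ5465), nanobody expression was induced with galactose for 36–48 hours. FACS gates were set low and high (top ~1%) using anti-HA fluorescence for expression and streptavidin fluorescence for binding of the Sf9 membrane reagent. Each polyreactivity label is drawn from the gate of origin.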

Sequence	polyreactivity (PSR sort gate)
QVQLVESGGGLVQAGGSLRLSCAASGITLTKYAMGWYRQAPGKERELVAAISKRGTNTYYADSVKGRFTISRDNAKNTVYLQMNSLKPEDTAVYYCNAPGHRQNGLGDYWGQGTQVTVSS	high polyreactivity
QVQLVESGGGLVQAGGSLRLSCAASGITLTKYGMGWYRQAPGKERELVAAISGSGGSTYYADSVKGRFTISRDNAKNTVYLQMNSLKPEDTAVYYCAARALYPRYYYWGQGTQVTVSS	high polyreactivity
QVQLVESGGGLVQAGGSLRLSCAASGITLVGNAMGWYRQAPGKERELVADINWSDDSTYYADSVKGRFTISRDNAKNTVYLQMNSLKQEDTAVYYCAADVSWRLYNRSSEYDYWGQGTQVTVSS	low polyreactivity
QVQLVESGGGLVQAGGSLRLSCAASGITLVRYAMGWYRQAPGKERELVAAISSSGGSTYYADSVKGRFTISRHNAKNTVYLQMNSLKPEDTAVYYCNAYVHSRRVEFNYWGQGTQVTVSS	high polyreactivity
QVQLVESGGGLVQAGGSLRLSCAASGITLVRYAMGWYRQAPGKERELVASIRGTGGSTYYADSVKGRFTISRDNAKNTVYLQMNSLKPEDTAVYYCAAGRYDYWGQGTQVTVSS	high polyreactivity
QVQLVESGGGLVQAGGSLRLSCAASGITLVRYAMGWYRQAPGKERELVASITSGASTNYADSVKGRFTISRDNAKNTVYLQMNSLKPEDTAVYYCAAGPPSGGWWGGWYDYWGQGTQVTVSS	high polyreactivity
QVQLVESGGGLVQAGGSLRLSCAASGITLYEYAMGWYRQAPGKERELVAAISTSGGRTRYADSVKGRFTISRDNAKNTVYLQMNSLKPEDTAVYYCAASGFVQISNPRRDYWGQGTQVTVSS	high polyreactivity
QVQLVESGGGLVQAGGSLRLSCAASGITLYNYAMGWYRQAPGTERELVAAISLSGGRTYYADSVKGRFTISRDNAKNTVYLQMNSLKPEDTAVYYCAADWLNSDPYNYWGQGTQVTVSS	low polyreactivity
QVQLVESGGGLVQAGGSLRLSCAASGITLYRNVMGWYRQAPGKERELVADISGRGTSTYYADSVKGRFTISRDNAKNTVYLQIHSLKPEDNAVYYCKGEVYLVVYPGLYYYDIYDYWGQGTQVTVSS	low polyreactivity
QVQLVESGGGLVQAGGSLRLSCAASGITLYRYAMGWYRHAPGKERELVAAISWSGGSTYYADSVKGRFTISRDNAKNTVYLQMNSLKPEDTAVYYCAADDYKDEHDYWGQGTQVTVSS	high polyreactivity
QVQLVESGGGLVQAGGSLRLSCAASGITLYYYVMGWYRQAPGKERELVAAISWNSGRTYYADSVKGRFTISRDNAKNTVYLQMNSLKPEDTAVYYCAARPPVRLTYRYSYDYWGQGTQVTVSS	high polyreactivity
QVQLVESGGGLVQAGGSLRLSCAASGITPDYAMGWYRQAPGKERELVAAITWSGGRTYYADSVKGRFTISRDNAKNTVYLQMNSLKPEDTAVYYCAAEHYLGYDYWGQGTQVTVSS	low polyreactivity
QVQLVESGGGLVQAGGSLRLSCAASGITSGHNAMGWYRQAPGKERELVADIRTGDSTNYADSVKGRFTISRDNAKNTVYLQMNSLKPEDTAVYYCAADSAYDVTSYGYWGQGTQVTVSS	low polyreactivity
QVQLVESGGGLVQAGGSLRLSCAASGITSGTYAMGWYRQAPGKERELVAAISSSGGRTYYADSVKGRFTISRDNAKNTVYLQMTSLKPEDTAVSYCAAETDTTYAFYWGQGTQVNVSS	high polyreactivity
QVQLVESGGGLVQAGGSLRLSCAASGITSPYAMGWYRQAPGKERELVAAISWSGSSTYYADSVKGRFTISRDNAKYTVYLQMNSLNPEDTAVYYCATLVSASRSRRFGYEYWGQGSQVTVSS	high polyreactivity
QVQLVESGGGLVQAGGSLRLSCAASGITSSIYAMGWDRQAPGKERELVAVSTTSGGSTYYADSVKGRYTISRDNAKNTVYLQMNSLKPEDTAVYYCAADSYFYLDLLEDYWGQGTKVTVSS	low polyreactivity
QVQLVESGGGLVQAGGSLRLSCAASGITSSYAMGWYRQAPGKERELVAAISRGGSTYYADSVKGRFTISRDNAKNTVYLQMNSLKPEDTAVYYCNKRRYPYGWGQGTQVTVSS	high polyreactivity
QVQLVESGGGLVQAGGSLRLSCAASGITSTYYAMGWYRQAPGKERELVAAISVSGGSTYYADSVKGRFTISRDNAKNTVYLQMNSLKPEDTAVYYCTADSYHTYYYWYDYWGQGTQVTVSS	low polyreactivity
QVQLVESGGGLVQAGGSLRLSCAASGITVKLYPMGWYRQAPGKETELVATINRGSSTYYADSVKGRFTISRDNAKNTVYLLMNSLKPEDTAVYYCAARLIGAGLLIYDYWGQGTQVTVSS	high polyreactivity
QVQLVESGGGLVQAGGSLRLSCAASGITVRLYAMGWYRQAPGKERELVATIDWSGDSTYYADSVKGRFTISRDNAKNTVYLQMHSLKPEDTAVYYCNAVYVPVGINLGEYDYWGQGTQVTVSS	low polyreactivity
QVQLVESGGGLVQAGGSLRLSCAASGITYRGYAMGWYRQAPGKERELVAAISSGGSTSYADSLKGRFTISRDNAKNTVYLQMNSLKPEDTAVYYCAKDDERKQGQYPPYDSWGQGTQVTVSS	low polyreactivity
QVQLVESGGGLVQAGGSLRLSCAASGITYRPYAMGWYRQTPGKERELVASISRGGSTYYADSVKGRFTISRDNAKNTVYLQMNSLKPEDTAVYYCAAYFAWRYDYWGQGTQVTVSS	high polyreactivity
